# Source: US9878046B2, “Adverse side-effects associated with administration of an anti-hyaluronan agent and methods for ameliorating or preventing the side-effects” (Halozyme, Inc., priority 2010, dated 2018)
# Several values for one entry are separate records, joined by “and”; a condition that tells them apart may be missing. Identical values can stand only once.
# B1: PEGPH20 (protein)
# chain: LNFRAPPVIPNVPFLWAWNAPSEFCLGKFDEPLDMSLFSFIGSPRINATGQGVTIFYVDRLGYYPYIDSITGVTVNGGIPQKISLQDHLDKAKKDITFYMPVDNLGMAVIDWEEWRPTWARNWKPKDVYKNRSIELVQQQNVQLSLTEATEKAKQEFEKAGKDFLVETIKLGKLLRPNHLWGYYLFPDCYNHHYKKPGYNGSCFNVEIKRNDDLSWLWNESTALYPSIYLNTQQSPVAATLYVRNRVREAIRVSKIPDAKSPLPVFAYTRIVFTDQVLKFLSQDELVYTFGETVALGASGIVIWGTLSIMRSMKSCLLLDNYMETILNPYIINVTLAAKMCSQVLCQEQGVCIRKNWNSSDYLHLNPDNFAIQLEKGGKFTVRGKPTLEDLEQFSEKFYCSCYSTLSCKEKADVKDTDAVDVCIADGVCIDAFLKPPMETEEPQIFY
# Key:
# [1] = Hyaluronidase activity (microturbidity assay), specific activity; type: biochemical
# Experimental: Hyaluronidase activity of soluble rHuPH20 is measured by incubating soluble rHuPH20 with sodium hyaluronate (hyaluronic acid) for a set period of time (10 minutes) and then precipitating the undigested sodium hyaluronate with the addition of acidified serum albumin. The turbidity of the resulting sample is measured at 640 nm after a 30 minute development period.
# Dilutions of the sample were prepared in Enzyme Diluent Solutions. The Enzyme Diluent Solution was prepared by dissolving 33.0±0.05 mg of hydrolyzed gelatin in 25.0 mL of the 50 mM PIPES Reaction Buffer (140 mM NaCl, 50 mM PIPES, pH 5.5) and 25.0 mL of sterile water for injection (SWFI), and diluting 0.2 mL of 25% Buminate solution into the mixture and vortexing for 30 seconds. This was performed within 2 hours of use and stored on ice until needed. The samples were diluted to an estimated 1-2 U/mL. […]
# The MULTIDROP 384 was prepared to stop the reaction by priming the machine with Serum Working Solution and changing the volume setting to 240 μL. […] The plate was removed and shaken on a plate reader for 10 seconds. After a further 15 minutes, the turbidity of the samples was measured at 640 nm and the hyaluronidase activity (in U/mL) of each sample was determined by fitting to the standard curve.
# Specific activity (Units/mg) was calculated by dividing the hyaluronidase activity (U/ml) by the protein concentration (mg/mL).
# [2] = tested on: soluble plasma hyaluronan; test: Soluble plasma hyaluronan ELISA in BxPC3 model mice; type: in vivo; details: PEGPH20 4.5 mg/kg alone or + dexamethasone (high or low dose)
# Experimental: Plasma samples were additionally used to measure soluble plasma hyaluronan in the control group and each of the treatment groups (R&D Systems Catalog #DY3614; ELISA assay). In the vehicle control group, the plasma hyaluronan levels ranged from 2,000 to 4,000 ng/mL.
# [3] = tested on: pericellular and stromal HA; test: Histochemical detection of HA in patient tumor biopsies; type: in vivo, human; details: colon cancer patient, liver metastasis, 1.6 μg/kg twice weekly + dexamethasone, post vs archived pre biopsy
# Experimental: An archived pre-dose biopsy (pre biopsy) obtained in 2007 (3.5 years prior to the PEGPH20 study) and a post-PEGPH20 Cycle 1 (3 days after the last dose) biospsy (Post biopsy) were obtained from a colon cancer patient with liver metastases. The patient post-treatment biopsy was obtained after one cycle of PEGPH20 treatment at 1.6 μg/kg on a twice weekly schedule with dexamethasone co-treatment.
# Briefly, the tumor biopsies were fixed in normal buffered formalin (NBF) and 5 μm sections cut and stained using a biotin labeled hyaluronan binding protein (HABP-bio) (Seikagaku, Japan). After washing to remove the primary reagent, a labeled secondary reagent was used. Nuclei were counter-stained using a DAPI (4′,6-diamidino-2-phenylindole) reagent. Micrographs were captured via a Nikon Eclipse TE2000U inverted fluorescent microscope coupled to a Insight FireWire digital camera (Diagnostic Instruments, Michigan) or ZEISS overhead scope (Carl Zeiss, Inc.) that has the same imaging system.
# [4] = Plasma pharmacokinetics of PEGPH20 (hyaluronidase activity) in patients
# Experimental: Plasma samples were stored frozen, and concentrations of PEGPH20 were determined by measuring hyaluronidase activity using a modified turbidimetric assay as described in Example 4. The USP turbidimetirc method used for the determination of hyaluronidase activity awas based on the formation of an insoluble precipitate that occurs when HA binds with acidified serum. PEGPH20 concentrations were expressed as units of hyaluronidase activity (U/mL) as interpolated from a calibration curve. Activity was reported to the nearest 1 U/mL, and the analytical methods were applicable for measuring plasma hyaluronidase concentrations as low as 0.3125 U/mL.
# [5] = single 50 μg/kg dose, individual patients 1 and 2
molecule,measurement,setting,value
B1,final enzyme activity,[1]; PEGylated rHuPH20 material at 3.5 mg/mL,"140,000 U/mL"
same,specific activity,[1]; rHuPH20 preparation vs PEGylated form,"about 32,000 Units/mg"
same,plasma hyaluronan,[2],no detectable (below limit of quantitation) hyaluronan
same,change in tumor HA by histochemical staining,[3],decrease in pericellular and stromal HA levels
same,time course of plasma concentrations,[4]; 0.5 μg/kg to 1.5 μg/kg,concentrations fell below the limit of quantification (BQL) during the first day
same,plasma concentrations after dosing,"[4]; 0.5 μg/kg to 1.5 μg/kg, twelve patients",≤ 1.5 U/mL
same,CL,[4]; [5],2.44 mL/h/kg and 3.29 mL/h/kg
same,"V1 (mL/kg), volume of the central compartment",[4]; [5],57.96 mL/kg and 55.93 mL/kg
same,"t1/2α (hr), distribution half-life",[4]; [5],4.77 h and 2.47 h
same,plasma enzyme at 72 hours after administration,[4]; single IV dose 50 μg/kg,< 2 U/mL
same,plasma enzyme initially following administration,[4]; single IV dose 50 μg/kg,approximately 30 U/mL
same,terminal half-life,[4]; single IV dose 50 μg/kg,approximately 2 days
same,plasma half life,"[4]; single IV dose 50 μg/kg, two patients",28 to 48 h
